For 2 substances, EC50 results are on record in patent US20020052481A1.

Usually EC50 stands for the midpoint of the concentration-response curve.

Read-outs that look alike come from different tables or passages of the source.

Assay [1] has as its target recombinant gp120 from the laboratory-adapted strain HIV-1LAI (HIV-1LAI) (UniProt P03377). Put plainly: modified ELISA, gp120 captured on plate. In general terms: ELISA stands for enzyme-linked immunosorbent assay.
The target of assay [2] is recombinant gp120 from the primary isolate HIV-1JR-FL (HIV-1JR-FL). Description: modified ELISA, gp120 captured on plate.
The target of assay [3] is HIV-1JR-FL envelope glycoprotein gp120/gp41 on cells (HIV-1JR-FL).
For assay [4], the target named is HIV-1LAI envelope glycoprotein gp120/gp41 on cells (HIV-1LAI) (UniProt P03377).
Assay [5] has as its target HIV-1JR-FL envelope glycoprotein gp120/gp41 on cells (HIV-1JR-FL). The source holds these as a separate data set.

Consider ^125I-CD4-IgG2 (Fc fusion), for which the EC50 is 1.05 nM in assay [1]; 2.36 nM in assay [2]; 10 to 40 nM in assay [3]; 19 nM in assay [4]; 12.8 nM in assay [5].

Regarding “CD4-IgG2 chimeric heterotetramer (Fc fusion)”, the EC50 in assay [1] was 1.47 nM; in assay [2], 1.27 nM.
